From patent US20230242902A1, “A HIGHLY ERROR-PRONE […] R[…] FOR TARGETED CONTINUOUS EVOLUTION IN VIVO” (The Regents of the University of California, priority 2017, published 2023) come the findings set out here.

The subject of this assay is genomic CAN1 gene. Description: Fluctuation tests of the genomic CAN1 gene (POL3 mutator strains). It counts as cell-based, S. cerevisiae. To be noted: genomic mutation rate. The protocol:
To construct POL3 mutator strains, plasmids were transformed into AH22 encoding wild-type POL3 on a URA3 plasmid or Δmsh6 AH22 encoding wild-type POL3 on a URA3 plasmid. Transformants were expanded in selective SC medium and spot plated on selective SC medium or selective SC medium supplemented with 5-FOA (1 g/L) for plasmid shuffle of the plasmid encoding wild-type POL3 via URA3 counter-selection (Boeke et al., 1984).
Fluctuation tests of the genomic CAN1 gene were performed to determine genomic per-base substitution rates. To minimize propagation of POL3 mutator strains, fluctuation tests were performed directly on colonies from plasmid shuffle plates. For each strain, 48 colonies from plasmid shuffle plates were individually scraped and resuspended in 120 μL 0.9% NaCl. 10 μL from each resuspension was diluted and subject to an event counts measurement via flow cytometry. This was done to identify colonies of similar cell count, because fluctuation tests are only appropriate when final population sizes for all replicates are similar. 24 resuspensions with similar event counts were used for fluctuation tests. […] Colonies were counted from titer plates after 2-4 days and from spot plates after 3-6 days. […]
Fluctuation data were analyzed as described above for URA3 fluctuation data, but with mutation frequency parameters for CAN1 (Lang et al., 2008). […]

B1: pol3-01: proofreading deficient pol3-01 allele encodes POL3 (D321A, E323A) (protein, UniProt P15436 1-1097, looked up, variant D321A E323A)
DNA polymerase delta …: MSEKRSLPMVDVKIDDEDTPQLEKKIKRQSIDHGVGSEPVSTIEIIPSDSFRKYNSQGFKAKDTDLMGTQLESTFEQELSQMEHDMADQEEHDLSSFERKKLPTDFDPSLYDISFQQIDAEQSVLNGIKDENTSTVVRFFGVTSEGHSVLCNVTGFKNYLYVPAPNSSDANDQEQINKFVHYLNETFDHAIDSIEVVSKQSIWGYSGDTKLPFWKIYVTYPHMVNKLRTAFERGHLSFNSWFSNGTTTYDNIAYTLRLMVDCGIVGMSWITLPKGKYSMIEPNNRVSSCQLEVSINYRNLIAHPAEGDWSHTAPLRIMSFAIACAGRIGVFPEPEYDPVIQIANVVSIAGAKKPFIRNVFTLNTCSPITGSMIFSHATEEEMLSNWRNFIIKVDPDVIIGYNTTNFDIPYLLNRAKALKVNDFPYFGRLKTVKQEIKESVFSSKAYGTRETKNVNIDGRLQLDLLQFIQREYKLRSYTLNAVSAHFLGEQKEDVHYSIISDLQNGDSETRRRLAVYCLKDAYLPLRLMEKLMALVNYTEMARVTGVPFSYLLARGQQIKVVSQLFRKCLEIDTVIPNMQSQASDDQYEGATVIEPIRGYYDVPIATLDFNSLYPSIMMAHNLCYTTLCNKATVERLNLKIDEDYVITPNGDYFVTTKRRRGILPIILDELISARKRAKKDLRDEKDPFKRDVLNGRQLALKISANSVYGFTGATVGKLPCLAISSSVTAYGRTMILKTKTAVQEKYCIKNGYKHDAVVVYGDTDSVMVKFGTTDLKEAMDLGTEAAKYVSTLFKHPINLEFEKAYFPYLLINKKRYAGLFWTNPDKFDKLDQKGLASVRRDSCSLVSIVMNKVLKKILIERNVDGALAFVRETINDILHNRVDISKLIISKTLAPNYTNPQPHAVLAERMKRREGVGPNVGDRVDYVIIGGNDKLYNRAEDPLFVLENNIQVDSRYYLTNQLQNPIISIVAPIIGDKQANGMFVVKSIKINTGSQKGGLMSFIKKVEACKSCKGPLRKGEGPLCSNCLARSGELYIKALYDVRDLEEKYSRLWTQCQRCAGNLHSEVLCSNKNCDIFYMRVKVKKELQEKVEQLSKW
B1 displayed a mutational increase of 58 fold.
